# Reference: patent US20140127211A1 (Pfizer, published 2014)
# T1: human Notch1 NRR-Fc (human, UniProt P46531 1446-1733, limits assumed)
# T1 construct: domain: NRR region; Made in CHO-PACE cells; not shown: human IgG1 Fc fragment
# T1 sequence (looked up): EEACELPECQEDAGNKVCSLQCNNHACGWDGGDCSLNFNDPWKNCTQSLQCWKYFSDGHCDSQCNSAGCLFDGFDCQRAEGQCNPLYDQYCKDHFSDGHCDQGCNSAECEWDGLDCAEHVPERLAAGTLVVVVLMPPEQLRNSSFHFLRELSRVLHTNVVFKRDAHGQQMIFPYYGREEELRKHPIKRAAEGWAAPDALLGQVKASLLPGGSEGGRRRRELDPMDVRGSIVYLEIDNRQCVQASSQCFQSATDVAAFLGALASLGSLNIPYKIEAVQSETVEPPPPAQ
# T2: human Notch3 NRR recombinant protein (Notch3 NRR_Avi_His tag) (human)
# T2 construct: Purified from CHO-PACE cells; the entry includes the C-terminal Avi and His6 tag
# T2 chain: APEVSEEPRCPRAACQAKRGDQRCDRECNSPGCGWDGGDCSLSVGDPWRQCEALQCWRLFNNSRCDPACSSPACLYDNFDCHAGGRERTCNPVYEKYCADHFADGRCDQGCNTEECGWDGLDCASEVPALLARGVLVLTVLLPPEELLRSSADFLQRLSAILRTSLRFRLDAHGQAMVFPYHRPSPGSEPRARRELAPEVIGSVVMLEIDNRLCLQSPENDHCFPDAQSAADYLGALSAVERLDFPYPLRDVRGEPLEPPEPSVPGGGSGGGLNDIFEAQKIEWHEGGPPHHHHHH
# T3: mouse Notch3 NRR recombinant protein (Notch3 NRR_Avi_His tag) (mouse)
# T3 construct: The entry includes the C-terminal Avi and His tag; S1-cleaved heterodimer as for the human protein
# T3 chain: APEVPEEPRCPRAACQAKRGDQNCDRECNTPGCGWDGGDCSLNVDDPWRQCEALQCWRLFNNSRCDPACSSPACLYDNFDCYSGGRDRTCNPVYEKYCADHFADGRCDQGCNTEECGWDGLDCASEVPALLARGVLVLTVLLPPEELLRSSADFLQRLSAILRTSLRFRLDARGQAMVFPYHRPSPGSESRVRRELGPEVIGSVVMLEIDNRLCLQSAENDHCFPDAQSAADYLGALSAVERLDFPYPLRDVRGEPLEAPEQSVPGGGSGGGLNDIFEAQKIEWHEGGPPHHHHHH
# B1: rat-human chimeric antibody 28 (ch28) (antibody, V domains shown)
# VH: EVQLVESGGGLVQPGRSLTLSCVASGFTFRDYGMTWIRQAPGKGLTWVAYISSGSNYIYYAEAVKGRFTISRDNAKNTLYLQMTSLRSEDTALYFCTRRGPFVLDAWGQGASVTVSS
# VL: DIQMTQSPSFLSASVGDRVTINCKASQSINRYLHWFQQKLGEAPKLLIYNANGLQTGIPSRFSGSGSGTDFTLTISSLQSEDVATYFCLQHNTWPDTFGAGTKLELK
# notes: also called ch28-hIgG1; ch28-hulgG1
# B2: hu28-vc6780 (Notch3-28-v1010-hG1-(C)_mcValCitPABC-#112) (antibody, human IgG1, kappa, V domains shown)
# VH: EVQLVESGGGLVQPGGSLRLSCAASGFTFRDYGMTWVRQAPGKGLEWVAYISSGSNYIYYAEAVKGRFTISRDNAKNSLYLQMNSLRAEDTAVYYCARRGPFVLDAWGQGTLVTVSS
# VL: DIQMTQSPSSLSASVGDRVTITCKASQSINRYLHWYQQKPGKAPKLLIYNANGLQTGVPSRFSGSGSGTDFTLTISSLQPEDFATYYCLQHNTWPDTFGGGTKVEIKR
# modifications: vc6780 linker-payload on cysteine residues after partial reduction; sites not specified
# notes: Antibody-drug conjugate of hu28
# B3: hu75-vc6780 (Notch3-75-v1913-hG1-(C)_mcValCitPABC-#112) (antibody, human IgG1, kappa, V domains shown)
# VH: EVQLVESGGGLVQPGGSLRLSCAASGYAFTDYWMTWVRQAPGKGLEWVAEISPNSGGTNFNEKFKGRFTISVDNAKNSLYLQMNSLRAEDTAVYYCARGEIRYNWFAYWGQGTLVTVSS
# VL: DIQMTQSPSSLSASVGDRVTITCKASQNVGNNIAWYQQKPGKAPKLLIYYASNRYTGVPSRFSGSGYGTDFTLTISSLQPEDFATYYCQRLYNSPFTFGGGTKVEIKR
# modifications: vc6780 linker-payload on cysteine residues after partial reduction; sites not specified
# notes: Antibody-drug conjugate of hu75
# B4: hu75 (humanized r75 variant VH1.9/VL1.3) (antibody, human IgG1, kappa, V domains shown)
# VH: B3 VH
# VL: B3 VL
# notes: Human IgG1/kappa; also called hu75 VH1.9/VL1.3; hu75 VH1.9/V1.3
# B5: hu75-vc0101 (Notch3-75-v1913-hG1-(C)_mcValCitPABC-#54) (antibody, human IgG1, kappa, V domains shown)
# VH: B3 VH
# VL: B3 VL
# modifications: vc0101 linker-payload on cysteine residues after partial reduction; sites not specified
# notes: as for B3
# Key:
# Notch3-NRR = Notch3-NRR (human); assay: ELISA: NRR-Fc protein coated at 1 ug/ml, antibody applied at 5 ug/ml, goat anti-human Fc-HRP, TMB, O.D. 450 nM
# Description: (§1) After 1 hour of incubation, plates were washed with PBS with 0.9 mM Mg²⁺ and Ca²⁺, before secondary goat anti-human Fc antibody conjugated with HRP were applied and incubated on the plates. After washing again, the plates were developed with TMB and the developing reactions were stopped by adding 0.18M H₂SO₄.
# [1] = target: T4, Notch 1-3 NRR domain swap chimera: B of Notch1; A, C, hd1, hd2 of Notch3 (row 5, unnamed on the sheet) (human); assay: as above
# T4 construct: part of the NRR
# Description: as §1
# human Notch1 NRR-Fc = target: T1, human Notch1 NRR-Fc; assay: as above
# Description: as §1
# [2] = target: T5, Notch 1-3 NRR domain swap chimera: A of Notch1; B, C, hd1, hd2 of Notch3 (row 4, unnamed on the sheet) (human); assay: as above
# T5 construct: part of the NRR
# Description: as §1
# [3] = target: T6, Notch 1-3 NRR domain swap chimera: hd2 of Notch1; A, B, C, hd1 of Notch3 (row 8, unnamed on the sheet) (human); assay: as above
# T6 construct: part of the NRR
# Description: as §1
# [4] = target: T2, human Notch3 NRR recombinant protein …; assay: ELISA, plate-coated recombinant protein
# Description: (§2) Purified human or mouse Notch3 NRR recombinant proteins were coated on CoStar hi-bound 96-well ELISA plates in 100 μl of PBS with Mg/Ca at a concentration of 1 μg/ml overnight. The plates were washed with PBS-Mg/Ca and blocked for 1 hour with 1% BSA in PBS-Mg/Ca. Blocking solution was decanted from the plate and 1:3 serial dilutions of antibodies in blocking solutions were applied to the plate. After incubation at room temperature for 1 hour, plates were washed again with PBS-Mg/Can before HRP (horse radish peroxidase)-conjugated secondary antibody diluted (1:20,000) in blocking buffer was applied. When the primary antibody tested was rat IgG, the secondary antibody was goat anti-rat IgG Fc (Bethyl Biotech); and when the primary antibody was human IgG, the secondary antibody was goat anti-human IgG Fc (Southern Biotech).
# (§3) After 1 hour incubation with the secondary antibody, plates were washed again, as described above, and TMB substrate solution was added. The developing reaction was allowed for 10 minutes before the stopping solution, 0.18M H₂SO₄, was added.
# [5] = target: T3, mouse Notch3 NRR recombinant protein …; assay: ELISA, plate-coated recombinant protein
# Description: as §2, §3
# [6] = target: T2, human Notch3 NRR recombinant protein …; assay: SPR (Biacore T100), antibody captured on anti-human IgG-Fc, Notch3 NRR as analyte, 1:1 Langmuir fit
# Description: The kinetic constants of the anti-Notch3 NRR interactions were determined by surface plasmon resonance (Biacore® T100, Biacore Inc., Piscataway, N.J.). Flow cells of a CM5 chip were immobilized with approximately 10,000 response units (RU) of anti-human IgG-Fc (Biacore®) in 10 mM Glycine, pH 5.0 at 10 μl/min for 600 seconds. […] Association of four concentrations of human Notch3 NRR recombinant protein (from 3.7-100 nM) and a zero concentration (running buffer) at 100 μl/min were recorded for 3 minutes in TBS with 1 mM CaCl₂. Dissociation of the complexes was measured for 10 minutes. The surface of the chip was regenerated by injecting 3M MgCl₂ with 3 mM EGTA for 60 seconds at 10 μl/min. Curves obtained after subtraction of the reference and buffer signals were fitted to a 1:1 Langmuir binding model with Biacore® T100 Evaluation Software (Biacore®).
# [7] = target: T7, full-length human Notch3 expressed on the cell surface (human, UniProt Q9UM47 40-2321); assay: cell-based ELISA, U2OS/hNotch3 cells
# T7 construct: whole, on cells; also called hNotch3; U2OS/hNotch3
# Description: (§4) U-2 OS cells stably over-expressing human or mouse full length Notch3 protein on cell surface (hereinafter U2OS/hNotch3 and U2OS/mNotch3, respectively) were plated at 50,000 cells/well in 96 well plates (white opaque, BD/VWR) the day before ELISA assay. On the day of the ELISA, culture media was removed from wells and serially diluted (1:3 in blocking buffer) antibody solutions were applied to the plate. Plates were incubated at room temperature for 2 hours before being washed with PBS-Mg/Ca. HRP-conjugated secondary antibody was then applied and incubated with cells for 1 hour as described above for recombinant protein ELISA. Plates were washed with PBS-Mg/Ca before being developed with Pico-Chemiluminescent developing kit (Thermal Scientific), and chemiluminescence measurements were performed per manufacturer's instructions. Data plotting and analyses were performed with Microsoft Excel and Graphpad-Prism software.
# [8] = target: T8, full-length mouse Notch3 expressed on the cell surface (mouse, UniProt Q61982 40-2318); assay: cell-based ELISA, U2OS/mNotch3 cells
# T8 construct: whole, on cells; Over-expressed on U-2 OS cells; also called U2OS/mNotch3
# Description: as §4
# [9] = target: T7, full-length human Notch3 expressed on …; assay: competition ELISA on U2OS/hNotch3 cells; competitor 0.8 nM biotinylated ch28
# Description: (§5) 96 well cell culture plates were seeded with U2OS/hNotch3 cells (cell culture plate, Co-star). […] After incubation for 2 hours, the plates were washed, as described above, and HRP-conjugated streptavidin (Southern Biotech) diluted 1:5000 in blocking buffer was applied. After incubation with streptavidin for 30 minutes, the plates were washed again before being developed with TMB solution for 10 minutes. […] Data plotting and analyses were performed with Microsoft Excel and Graphpad-Prism software.
# [10] = target: T7, full-length human Notch3 expressed on …; assay: cell-based ELISA, U2OS/hNotch3 cells; SD 0.008
# Description: (§6) On the day of the ELISA, culture media was removed from wells and serially diluted (1:3 in DPBS with calcium chloride and magnesium chloride (Ca/Mg) and 1% BSA) antibody and ADC solutions were applied to the plate. Plates were incubated at room temperature for 2 hours before washed with DPBS with Ca/Mg and 1% BSA. HRP-conjugated secondary antibody was then applied and incubated with cells for 1 hour. Plates were washed with DPBS with Ca/Mg and 1% BSA before being developed with Pico-Chemiluminescent developing kit (Thermal Scientific), and chemiluminescence measurements were performed per manufacturer's instructions. Data plotting and analyses were performed with Microsoft Excel and Graphpad-Prism software.
# [11] = target: T7, full-length human Notch3 expressed on …; assay: cell-based or functional assay
# [12] = target: T7, full-length human Notch3 expressed on …; assay: cell-based ELISA, HCC2429 cells; SD 0.034
# Description: as §6
# [13] = target: T7, full-length human Notch3 expressed on …; assay: cell-based or functional assay; remark: listed apart in the source
# [14] = target: T7, full-length human Notch3 expressed on …; assay: cell-based ELISA, MDA-MB-468 cells; SD 0.046
# Description: as §6
# [15] = target: T7, full-length human Notch3 expressed on …; assay: cell-based ELISA, U2OS/hNotch3 cells; SD 0.041
# Description: as §6
# [16] = target: T7, full-length human Notch3 expressed on …; assay: cell-based ELISA, HCC2429 cells; SD 0.063
# Description: as §6
# [17] = target: T7, full-length human Notch3 expressed on …; assay: cell-based ELISA, MDA-MB-468 cells; SD 0.062
# Description: as §6
# [18] = target: T7, full-length human Notch3 expressed on …; assay: cell-based ELISA, MDA-MB-468 cells; SD 0.176
# Description: as §6
# [19] = target: T7, full-length human Notch3 expressed on …; assay: cell-based ELISA, HCC2429 cells; SD 0.053
# Description: as §6
# [20] = target: T7, full-length human Notch3 expressed on …; assay: cell-based ELISA, U2OS/hNotch3 cells; SD 0.160
# Description: as §6
# [21] = target: T7, full-length human Notch3 expressed on …; assay: competition ELISA on U2OS/hNotch3 cells; competitor 0.8 nM biotinylated ch75
# Description: as §5
# [22] = target: T7, full-length human Notch3 expressed on …; assay: cell-based ELISA, U2OS/hNotch3 cells; SD 0.057
# Description: as §6
# [23] = target: T7, full-length human Notch3 expressed on …; assay: cell-based ELISA, MDA-MB-468 cells; SD 0.167
# Description: as §6
# [24] = target: T7, full-length human Notch3 expressed on …; assay: cell-based ELISA, HCC2429 cells; SD 0.115
# Description: as §6
# T7 sequence (Q9UM47 40-2321): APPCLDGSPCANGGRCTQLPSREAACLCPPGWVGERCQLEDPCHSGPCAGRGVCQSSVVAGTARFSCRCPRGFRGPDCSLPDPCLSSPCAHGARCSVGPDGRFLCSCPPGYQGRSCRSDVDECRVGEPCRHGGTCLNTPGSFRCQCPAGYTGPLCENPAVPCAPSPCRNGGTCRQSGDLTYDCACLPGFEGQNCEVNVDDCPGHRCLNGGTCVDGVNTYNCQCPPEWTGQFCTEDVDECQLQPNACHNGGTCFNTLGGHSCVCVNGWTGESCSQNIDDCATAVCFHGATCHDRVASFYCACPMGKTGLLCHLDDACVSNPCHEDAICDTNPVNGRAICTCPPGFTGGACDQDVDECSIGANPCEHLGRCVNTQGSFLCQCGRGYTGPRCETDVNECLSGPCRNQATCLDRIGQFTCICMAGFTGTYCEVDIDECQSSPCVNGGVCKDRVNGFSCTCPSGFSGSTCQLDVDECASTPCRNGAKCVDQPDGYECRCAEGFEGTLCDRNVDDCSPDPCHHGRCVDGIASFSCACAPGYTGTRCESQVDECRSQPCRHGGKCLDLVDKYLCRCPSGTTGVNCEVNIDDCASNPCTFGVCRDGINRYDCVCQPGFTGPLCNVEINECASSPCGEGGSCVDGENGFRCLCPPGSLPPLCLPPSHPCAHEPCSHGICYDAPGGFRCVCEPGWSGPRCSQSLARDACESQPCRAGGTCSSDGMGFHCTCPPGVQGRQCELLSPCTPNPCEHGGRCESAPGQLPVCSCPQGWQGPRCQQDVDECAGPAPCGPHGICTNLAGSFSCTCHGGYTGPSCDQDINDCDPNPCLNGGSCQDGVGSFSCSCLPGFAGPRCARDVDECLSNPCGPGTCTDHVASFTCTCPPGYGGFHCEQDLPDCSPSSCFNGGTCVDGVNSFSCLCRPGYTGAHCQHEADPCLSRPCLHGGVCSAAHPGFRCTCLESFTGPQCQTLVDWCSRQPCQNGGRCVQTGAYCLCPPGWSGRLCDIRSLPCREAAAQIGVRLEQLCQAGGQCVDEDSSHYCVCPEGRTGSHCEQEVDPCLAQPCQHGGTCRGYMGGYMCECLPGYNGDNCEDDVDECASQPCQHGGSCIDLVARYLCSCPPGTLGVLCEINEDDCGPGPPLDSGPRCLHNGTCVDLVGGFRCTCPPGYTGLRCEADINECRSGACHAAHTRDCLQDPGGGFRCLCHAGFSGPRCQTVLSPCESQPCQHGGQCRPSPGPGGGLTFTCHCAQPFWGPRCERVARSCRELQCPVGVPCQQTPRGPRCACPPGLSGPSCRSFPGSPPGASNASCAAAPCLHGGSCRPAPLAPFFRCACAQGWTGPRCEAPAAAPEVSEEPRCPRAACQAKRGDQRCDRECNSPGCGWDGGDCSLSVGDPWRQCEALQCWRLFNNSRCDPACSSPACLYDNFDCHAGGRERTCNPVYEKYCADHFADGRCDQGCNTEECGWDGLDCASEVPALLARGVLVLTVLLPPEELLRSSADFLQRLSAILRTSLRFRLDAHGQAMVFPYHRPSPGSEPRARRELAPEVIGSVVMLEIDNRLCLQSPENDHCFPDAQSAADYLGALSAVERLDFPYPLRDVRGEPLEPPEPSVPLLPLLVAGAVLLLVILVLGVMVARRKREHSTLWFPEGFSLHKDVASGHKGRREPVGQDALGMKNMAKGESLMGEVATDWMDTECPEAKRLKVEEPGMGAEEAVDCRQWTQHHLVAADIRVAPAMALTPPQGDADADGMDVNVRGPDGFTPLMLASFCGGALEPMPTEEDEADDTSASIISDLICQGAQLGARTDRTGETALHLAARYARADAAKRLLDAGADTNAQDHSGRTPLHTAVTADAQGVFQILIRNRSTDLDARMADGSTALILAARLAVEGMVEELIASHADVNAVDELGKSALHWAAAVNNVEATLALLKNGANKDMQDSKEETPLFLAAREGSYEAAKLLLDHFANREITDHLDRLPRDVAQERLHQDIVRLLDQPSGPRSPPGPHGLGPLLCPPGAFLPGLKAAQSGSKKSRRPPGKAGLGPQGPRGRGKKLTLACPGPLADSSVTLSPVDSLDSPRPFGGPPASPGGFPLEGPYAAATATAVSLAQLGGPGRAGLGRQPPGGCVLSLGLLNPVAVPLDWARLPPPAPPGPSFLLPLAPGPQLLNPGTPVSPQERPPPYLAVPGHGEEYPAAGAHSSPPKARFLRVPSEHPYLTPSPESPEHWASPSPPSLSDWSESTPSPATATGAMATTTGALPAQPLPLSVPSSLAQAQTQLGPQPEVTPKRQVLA
# T8 sequence (Q61982 40-2318): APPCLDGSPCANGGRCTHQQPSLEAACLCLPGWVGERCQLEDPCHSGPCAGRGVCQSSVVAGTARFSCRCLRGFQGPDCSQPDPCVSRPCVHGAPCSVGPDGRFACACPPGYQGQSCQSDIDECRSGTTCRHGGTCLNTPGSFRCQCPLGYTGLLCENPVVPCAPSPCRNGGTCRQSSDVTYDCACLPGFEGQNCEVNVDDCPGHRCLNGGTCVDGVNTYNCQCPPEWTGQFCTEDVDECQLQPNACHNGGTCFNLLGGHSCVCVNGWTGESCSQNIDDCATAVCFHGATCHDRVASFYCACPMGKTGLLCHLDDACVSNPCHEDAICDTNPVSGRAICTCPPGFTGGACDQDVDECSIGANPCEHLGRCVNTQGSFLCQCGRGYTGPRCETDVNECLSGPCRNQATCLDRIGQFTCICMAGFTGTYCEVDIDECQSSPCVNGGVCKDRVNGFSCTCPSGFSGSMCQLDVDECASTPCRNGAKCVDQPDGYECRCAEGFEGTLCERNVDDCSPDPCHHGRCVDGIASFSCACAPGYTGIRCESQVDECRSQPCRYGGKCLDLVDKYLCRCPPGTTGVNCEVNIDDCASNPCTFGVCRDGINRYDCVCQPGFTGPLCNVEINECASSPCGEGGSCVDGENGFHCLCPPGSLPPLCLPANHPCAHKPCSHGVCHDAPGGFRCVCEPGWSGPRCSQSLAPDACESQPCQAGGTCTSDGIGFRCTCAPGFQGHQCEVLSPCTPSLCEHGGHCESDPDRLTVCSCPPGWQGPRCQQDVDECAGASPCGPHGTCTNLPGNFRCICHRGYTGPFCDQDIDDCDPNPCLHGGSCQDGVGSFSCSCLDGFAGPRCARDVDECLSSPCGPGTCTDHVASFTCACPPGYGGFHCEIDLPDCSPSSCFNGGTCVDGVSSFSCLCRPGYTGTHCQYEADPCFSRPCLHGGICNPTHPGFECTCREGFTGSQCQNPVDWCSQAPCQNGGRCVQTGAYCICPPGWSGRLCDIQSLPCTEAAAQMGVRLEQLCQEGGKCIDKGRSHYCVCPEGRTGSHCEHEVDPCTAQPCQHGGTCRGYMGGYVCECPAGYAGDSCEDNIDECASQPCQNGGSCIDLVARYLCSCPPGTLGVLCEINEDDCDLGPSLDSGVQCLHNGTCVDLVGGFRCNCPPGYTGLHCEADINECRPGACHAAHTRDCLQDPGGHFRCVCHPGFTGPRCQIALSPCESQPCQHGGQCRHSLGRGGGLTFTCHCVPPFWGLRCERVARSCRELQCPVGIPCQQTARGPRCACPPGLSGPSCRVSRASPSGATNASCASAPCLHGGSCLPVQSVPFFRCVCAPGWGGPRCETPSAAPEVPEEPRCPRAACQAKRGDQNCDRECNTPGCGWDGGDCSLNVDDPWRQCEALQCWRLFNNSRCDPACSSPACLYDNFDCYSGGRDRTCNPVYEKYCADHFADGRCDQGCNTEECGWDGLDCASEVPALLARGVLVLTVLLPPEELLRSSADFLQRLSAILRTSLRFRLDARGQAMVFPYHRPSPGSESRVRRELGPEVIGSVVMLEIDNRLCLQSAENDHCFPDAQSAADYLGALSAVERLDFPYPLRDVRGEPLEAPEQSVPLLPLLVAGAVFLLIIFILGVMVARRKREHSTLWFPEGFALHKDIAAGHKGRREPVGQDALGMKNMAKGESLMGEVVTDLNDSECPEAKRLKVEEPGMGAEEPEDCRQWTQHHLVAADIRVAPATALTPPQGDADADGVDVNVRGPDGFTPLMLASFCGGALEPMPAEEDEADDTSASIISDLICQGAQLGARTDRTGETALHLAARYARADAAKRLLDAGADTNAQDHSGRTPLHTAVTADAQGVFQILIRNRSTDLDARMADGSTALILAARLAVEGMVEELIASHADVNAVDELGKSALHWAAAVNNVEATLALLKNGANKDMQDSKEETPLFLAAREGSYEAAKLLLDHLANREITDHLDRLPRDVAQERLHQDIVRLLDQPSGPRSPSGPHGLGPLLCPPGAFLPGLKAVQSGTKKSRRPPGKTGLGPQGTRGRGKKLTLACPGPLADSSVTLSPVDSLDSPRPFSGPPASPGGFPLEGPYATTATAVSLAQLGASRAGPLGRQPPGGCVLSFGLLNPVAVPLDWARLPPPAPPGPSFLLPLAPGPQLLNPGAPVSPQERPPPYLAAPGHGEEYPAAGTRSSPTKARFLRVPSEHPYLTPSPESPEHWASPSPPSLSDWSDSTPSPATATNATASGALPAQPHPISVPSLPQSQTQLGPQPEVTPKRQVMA
binder,measurement,setting,value
B1,"O.D. 450 nM (ELISA, relative binding capacity)",Notch3-NRR,2.06
same,"O.D. 450 nM (ELISA, relative binding capacity)",[1],0.54
same,binding result,human Notch1 NRR-Fc,no binding (tested: 5 ug/ml)
same,"O.D. 450 nM (ELISA, relative binding capacity)",[2],0.15
same,"O.D. 450 nM (ELISA, relative binding capacity)",[3],0.5
same,EC50,[4],≤ 1 nM
same,EC50,[5],≤ 1 nM
same,Kd,[6],0.61 nM
same,koff,[6],0.000249 s⁻¹
same,kon,[6],409000 M⁻¹ s⁻¹
same,EC50,[7],0.098 nM
same,EC50,[8],0.13 nM
same,EC50,[9],3 nM
B2,EC50,[10],0.236 nM
same,"IC50 of cytotoxicity, MDA-MB-468/hNotch3 cells, control siRNA",[11],2 ng Ab/mL
same,EC50,[12],0.154 nM
same,"IC50 of cytotoxicity (MTS viability), HCC2429 cells, repeat 1",[13],148 ng Ab/mL
same,"IC50 of cytotoxicity (MTS viability), HCC2429 cells, repeat 2",[13],2050 ng Ab/mL
same,"IC50 of cytotoxicity (MTS viability), MDA-MB-468/hNotch3 cells, repeat 1",[13],1.3 ng Ab/mL
same,"IC50 of cytotoxicity (MTS viability), MDA-MB-468/hNotch3 cells, repeat 2",[13],3 ng Ab/mL
same,"IC50 of cytotoxicity (MTS viability), OVCAR3 cells",[13],17 ng Ab/mL
same,EC50,[14],0.242 nM
B3,"IC50 of cytotoxicity, MDA-MB-468/hNotch3 cells, Notch3 siRNA (reduced Notch3 expression)",[11],7980 ng Ab/mL
same,"IC50 of cytotoxicity, MDA-MB-468/hNotch3 cells, control siRNA",[11],17 ng Ab/mL
same,EC50,[15],0.723 nM
same,EC50,[16],0.343 nM
same,"IC50 of cytotoxicity (MTS viability), HCC2429 cells, repeat 1",[13],214 ng Ab/mL
same,"IC50 of cytotoxicity (MTS viability), HCC2429 cells, repeat 2",[13],630 ng Ab/mL
same,"IC50 of cytotoxicity (MTS viability), MDA-MB-468/hNotch3 cells, repeat 1",[13],26 ng Ab/mL
same,"IC50 of cytotoxicity (MTS viability), MDA-MB-468/hNotch3 cells, repeat 2",[13],25 ng Ab/mL
same,"IC50 of cytotoxicity (MTS viability), OVCAR3 cells",[13],254 ng Ab/mL
same,EC50,[17],1.8 nM
B4,EC50,[18],1.28 nM
same,EC50,[19],0.335 nM
same,Kd,[6],9.76 nM
same,EC50,[7],0.22 nM
same,EC50,[20],0.585 nM
same,EC50,[21],1.7 nM
B5,"IC50 of cytotoxicity, MDA-MB-468/hNotch3 cells, Notch3 siRNA (reduced Notch3 expression)",[11],3190 ng Ab/mL
same,"IC50 of cytotoxicity, MDA-MB-468/hNotch3 cells, control siRNA",[11],29 ng Ab/mL
same,EC50,[22],0.798 nM
same,"IC50 of cytotoxicity (MTS viability), HCC2429 cells, repeat 1",[13],611 ng Ab/mL
same,"IC50 of cytotoxicity (MTS viability), HCC2429 cells, repeat 2",[13],3300 ng Ab/mL
same,"IC50 of cytotoxicity (MTS viability), MDA-MB-468/hNotch3 cells, repeat 1",[13],37 ng Ab/mL
same,"IC50 of cytotoxicity (MTS viability), MDA-MB-468/hNotch3 cells, repeat 2",[13],36 ng Ab/mL
same,"IC50 of cytotoxicity (MTS viability), MDA-MB-468 cells",[13],7000 ng Ab/mL
same,"IC50 of cytotoxicity (MTS viability), OVCAR3 cells",[13],515 ng Ab/mL
same,"IC50 of cytotoxicity (MTS viability), U2OS/hNotch3 cells",[13],523 ng Ab/mL
same,EC50,[23],2.02 nM
same,EC50,[24],0.427 nM
